Experimental data: IntAct's records for PubMed 31515488
One block for each substance: values may come before it.

Key:
tcl1a_human TCL1A = tcl1a_human TCL1A (UniProt P56279)
inca1_human INCA1 = inca1_human INCA1 (UniProt Q0VD86)
itf2_human TCF4 = itf2_human TCF4 (UniProt P15884)
cep76_human CEP76 = cep76_human CEP76 (UniProt Q8TAP6)
hbaz_human HBZ = hbaz_human HBZ (UniProt P02008)
magd1_human MAGED1 = target: T1, magd1_human MAGED1 (UniProt Q9Y5V3)
T1 sequence: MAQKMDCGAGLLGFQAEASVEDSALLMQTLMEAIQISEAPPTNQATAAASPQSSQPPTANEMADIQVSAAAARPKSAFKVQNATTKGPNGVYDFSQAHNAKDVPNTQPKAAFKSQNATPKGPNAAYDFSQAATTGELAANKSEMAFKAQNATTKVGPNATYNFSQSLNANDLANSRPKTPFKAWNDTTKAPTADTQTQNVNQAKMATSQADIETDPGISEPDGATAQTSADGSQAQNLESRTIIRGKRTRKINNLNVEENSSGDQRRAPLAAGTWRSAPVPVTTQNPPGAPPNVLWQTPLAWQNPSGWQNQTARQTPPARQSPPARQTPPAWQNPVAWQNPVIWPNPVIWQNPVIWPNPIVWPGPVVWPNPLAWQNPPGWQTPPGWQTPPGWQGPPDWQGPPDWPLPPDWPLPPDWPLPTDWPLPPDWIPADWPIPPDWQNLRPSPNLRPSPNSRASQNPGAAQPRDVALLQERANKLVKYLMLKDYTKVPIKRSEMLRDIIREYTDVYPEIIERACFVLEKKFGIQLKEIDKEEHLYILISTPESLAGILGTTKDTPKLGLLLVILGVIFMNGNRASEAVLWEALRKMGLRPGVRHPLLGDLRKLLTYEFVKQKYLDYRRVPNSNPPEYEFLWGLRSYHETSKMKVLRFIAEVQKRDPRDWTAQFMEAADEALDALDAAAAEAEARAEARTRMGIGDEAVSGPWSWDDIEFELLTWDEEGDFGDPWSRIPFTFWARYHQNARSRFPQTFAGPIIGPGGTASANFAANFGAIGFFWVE

nmna1_human NMNAT1 = nmna1_human NMNAT1 (UniProt Q9HAN9)
mlh1_human MLH1 = mlh1_human MLH1 (UniProt P40692)
neca2_human NECAB2 = target: T2, neca2_human NECAB2 (UniProt Q7Z6G3)
T2 sequence: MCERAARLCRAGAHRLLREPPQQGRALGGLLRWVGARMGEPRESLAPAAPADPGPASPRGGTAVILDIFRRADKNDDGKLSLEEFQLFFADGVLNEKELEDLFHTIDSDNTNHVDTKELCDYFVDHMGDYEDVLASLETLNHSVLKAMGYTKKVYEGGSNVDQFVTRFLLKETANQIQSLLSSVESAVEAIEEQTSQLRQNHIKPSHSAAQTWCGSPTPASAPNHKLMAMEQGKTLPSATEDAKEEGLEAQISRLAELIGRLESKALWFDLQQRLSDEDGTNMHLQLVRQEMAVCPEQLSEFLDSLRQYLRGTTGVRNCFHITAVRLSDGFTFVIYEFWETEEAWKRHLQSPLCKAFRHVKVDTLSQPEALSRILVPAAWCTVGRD

srtd3_human SERTAD3 = target: T3, srtd3_human SERTAD3 (UniProt Q9UJW9)
T3 sequence: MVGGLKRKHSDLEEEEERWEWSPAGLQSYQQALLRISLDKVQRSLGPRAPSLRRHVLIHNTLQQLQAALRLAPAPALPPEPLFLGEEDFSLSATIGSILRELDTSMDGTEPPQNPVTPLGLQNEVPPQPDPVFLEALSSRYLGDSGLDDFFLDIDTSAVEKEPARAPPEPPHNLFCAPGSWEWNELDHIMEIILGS

klhl2_human KLHL2 = klhl2_human KLHL2 (UniProt O95198)

effect of a mutation on the interaction (tcl1a_human TCL1A): with no effect
Substance: "DNA (cytosine-5)-methyltransferase 3A" (Homo sapiens) (from UniProt Q9Y6K1) E30A

effect of a mutation on the interaction (tcl1a_human TCL1A): with no effect
Substance: "DNA (cytosine-5)-methyltransferase 3A" (Homo sapiens) (from UniProt Q9Y6K1) N501S

effect of a mutation on the interaction (tcl1a_human TCL1A): with no effect
Substance: "DNA (cytosine-5)-methyltransferase 3A" (Homo sapiens) (from UniProt Q9Y6K1) V372I

effect of a mutation on the interaction (inca1_human INCA1): with no effect
effect of a mutation on the interaction (itf2_human TCF4): with no effect
effect of a mutation on the interaction (cep76_human CEP76): with no effect
Substance: Calcium-binding protein 5 (Homo sapiens), Q9NP86 R44Q

effect of a mutation on the interaction (hbaz_human HBZ): disrupting interaction strength
Substance: Hemoglobin subunit beta (Homo sapiens), P68871 D100Y

effect of a mutation on the interaction (hbaz_human HBZ): disrupting interaction strength
Substance: Hemoglobin subunit beta (Homo sapiens), P68871 E7V

effect of a mutation on the interaction (hbaz_human HBZ): disrupting interaction strength
Substance: Hemoglobin subunit beta (Homo sapiens), P68871 F123S

effect of a mutation on the interaction (hbaz_human HBZ): with no effect
Substance: Hemoglobin subunit beta (Homo sapiens), P68871 G57D

effect of a mutation on the interaction (hbaz_human HBZ): disrupting interaction strength
Substance: Hemoglobin subunit beta (Homo sapiens), P68871 V114E

effect of a mutation on the interaction (hbaz_human HBZ): disrupting interaction strength
Substance: Hemoglobin subunit beta (Homo sapiens), P68871 V127G

effect of a mutation on the interaction (magd1_human MAGED1): with no effect
effect of a mutation on the interaction (nmna1_human NMNAT1): with no effect
effect of a mutation on the interaction (mlh1_human MLH1): with no effect
effect of a mutation on the interaction (neca2_human NECAB2): with no effect
effect of a mutation on the interaction (srtd3_human SERTAD3): with no effect
Substance: Importin subunit alpha-1 (Homo sapiens) (from UniProt P52292) N86S

effect of a mutation on the interaction (magd1_human MAGED1): with no effect
effect of a mutation on the interaction (nmna1_human NMNAT1): with no effect
effect of a mutation on the interaction (mlh1_human MLH1): with no effect
effect of a mutation on the interaction (neca2_human NECAB2): with no effect
effect of a mutation on the interaction (srtd3_human SERTAD3): with no effect
Substance: Importin subunit alpha-1 (Homo sapiens) (from UniProt P52292) R117Q

effect of a mutation on the interaction (magd1_human MAGED1): with no effect
effect of a mutation on the interaction (nmna1_human NMNAT1): with no effect
effect of a mutation on the interaction (mlh1_human MLH1): with no effect
effect of a mutation on the interaction (neca2_human NECAB2): with no effect
effect of a mutation on the interaction (srtd3_human SERTAD3): with no effect
Substance: Importin subunit alpha-1 (Homo sapiens) (from UniProt P52292) R117W

effect of a mutation on the interaction (magd1_human MAGED1): with no effect
effect of a mutation on the interaction (nmna1_human NMNAT1): with no effect
effect of a mutation on the interaction (neca2_human NECAB2): with no effect
effect of a mutation on the interaction (srtd3_human SERTAD3): with no effect
Substance: Importin subunit alpha-1 (Homo sapiens) (from UniProt P52292) V506I

effect of a mutation on the interaction (klhl2_human KLHL2): with no effect
Substance: Zinc finger protein 114 (Homo sapiens), Q8NC26 E19G

effect of a mutation on the interaction (klhl2_human KLHL2): with no effect
Substance: Zinc finger protein 114 (Homo sapiens), Q8NC26 H99N

effect of a mutation on the interaction (klhl2_human KLHL2): with no effect
Substance: Zinc finger protein 114 (Homo sapiens), Q8NC26 K404E

effect of a mutation on the interaction (klhl2_human KLHL2): with no effect
Substance: Zinc finger protein 114 (Homo sapiens), Q8NC26 Q357P

Continued, substance first:

Substance: "DNA (cytosine-5)-methyltransferase 3A" (Homo sapiens) (from UniProt Q9Y6K1) P904L
effect of a mutation on the interaction (tcl1a_human TCL1A): disrupting interaction strength

Substance: Calcium-binding protein 5 (Homo sapiens), Q9NP86 G73S
effect of a mutation on the interaction (inca1_human INCA1): with no effect
effect of a mutation on the interaction (itf2_human TCF4): with no effect
effect of a mutation on the interaction (cep76_human CEP76): with no effect

Substance: Calcium-binding protein 5 (Homo sapiens), Q9NP86 T65R
effect of a mutation on the interaction (inca1_human INCA1): with no effect
effect of a mutation on the interaction (itf2_human TCF4): disrupting interaction strength
effect of a mutation on the interaction (cep76_human CEP76): with no effect

Substance: Calcium-binding protein 5 (Homo sapiens), Q9NP86 V128A
effect of a mutation on the interaction (inca1_human INCA1): with no effect
effect of a mutation on the interaction (itf2_human TCF4): with no effect
effect of a mutation on the interaction (cep76_human CEP76): with no effect

Substance: Hemoglobin subunit beta (Homo sapiens), P68871 E7K
effect of a mutation on the interaction (hbaz_human HBZ): disrupting interaction strength

Substance: Hemoglobin subunit beta (Homo sapiens), P68871 E102Q
effect of a mutation on the interaction (hbaz_human HBZ): disrupting interaction strength

Substance: Hemoglobin subunit beta (Homo sapiens), P68871 E122V
effect of a mutation on the interaction (hbaz_human HBZ): disrupting interaction strength

Substance: Hemoglobin subunit beta (Homo sapiens), P68871 F104L
effect of a mutation on the interaction (hbaz_human HBZ): disrupting interaction strength

Substance: Hemoglobin subunit beta (Homo sapiens), P68871 H118Y
effect of a mutation on the interaction (hbaz_human HBZ): disrupting interaction strength

Substance: Hemoglobin subunit beta (Homo sapiens), P68871 L115P
effect of a mutation on the interaction (hbaz_human HBZ): disrupting interaction strength

Substance: Hemoglobin subunit beta (Homo sapiens), P68871 N103Y
effect of a mutation on the interaction (hbaz_human HBZ): with no effect

Substance: Hemoglobin subunit beta (Homo sapiens), P68871 P101A
effect of a mutation on the interaction (hbaz_human HBZ): disrupting interaction strength

Substance: Hemoglobin subunit beta (Homo sapiens), P68871 S10C
effect of a mutation on the interaction (hbaz_human HBZ): disrupting interaction strength

Substance: Hemoglobin subunit beta (Homo sapiens), P68871 T88P
effect of a mutation on the interaction (hbaz_human HBZ): disrupting interaction strength

Substance: Importin subunit alpha-1 (Homo sapiens) (from UniProt P52292) P216S
effect of a mutation on the interaction (magd1_human MAGED1): with no effect
effect of a mutation on the interaction (nmna1_human NMNAT1): with no effect
effect of a mutation on the interaction (mlh1_human MLH1): with no effect
effect of a mutation on the interaction (neca2_human NECAB2): with no effect
effect of a mutation on the interaction (srtd3_human SERTAD3): with no effect

Substance: Importin subunit alpha-1 (Homo sapiens) (from UniProt P52292) V506D
effect of a mutation on the interaction (magd1_human MAGED1): with no effect
effect of a mutation on the interaction (nmna1_human NMNAT1): with no effect
effect of a mutation on the interaction (neca2_human NECAB2): with no effect
effect of a mutation on the interaction (srtd3_human SERTAD3): with no effect

Substance: Zinc finger protein 114 (Homo sapiens), Q8NC26 A229P
effect of a mutation on the interaction (klhl2_human KLHL2): with no effect

Substance: Zinc finger protein 114 (Homo sapiens), Q8NC26 D61V
effect of a mutation on the interaction (klhl2_human KLHL2): with no effect
